# Where two headings read alike, the source gives them in different places.
# How the values were obtained:
# [1] = target: the molecule itself; experiment: crystal structure
# [2] = target: the molecule itself
Protein,stoichiometry N [1],stoichiometry N [2]
"Escherichia coli dGTPase, wild type (enzyme) MAQIDFRKKINWHRRYRSPQGVKTEHEILRIFESDRGRIINSPAIRRLQQKTQVFPLERNAAVRTRLTHSMEVQQVGRYIAKEILSRLKELKLLEAYGLDELTGPFESIVEMSCLMHDIGNPPFGHFGEAAINDWFRQRLHPEDAESQPLTDDRCSVAALRLRDGEEPLNELRRKIRQDLCHFEGNAQGIRLVHTLMRMNLTWAQVGGILKYTRPAWWRGETPETHHYLMKKPGYYLSEEAYIARLRKELNLALYSRFPLTWIMEAADDISYCVADLEDAVEKRIFTVEQLYHHLHEAWGQHEKGSLFSLVVENAWEKSRSNSLSRSTEDQFFMYLRVNTLNKLVPYAAQRFIDNLPAIFAGTFNHALLEDASECSDLLKLYKNVAVKHVFSHPDVERLELQGYRVISGLLEIYRPLLSLSLSDFTELVEKERVKRFPIESRLFHKLSTRHRLAYVEAVSKLPSDSPEFPLWEYYYRCRLLQDYISGMTDLYAWDEYRRLMAVEQ",6,
Escherichia coli dGTPase E129A (enzyme) MAQIDFRKKINWHRRYRSPQGVKTEHEILRIFESDRGRIINSPAIRRLQQKTQVFPLERNAAVRTRLTHSMEVQQVGRYIAKEILSRLKELKLLEAYGLDELTGPFESIVEMSCLMHDIGNPPFGHFGAAAINDWFRQRLHPEDAESQPLTDDRCSVAALRLRDGEEPLNELRRKIRQDLCHFEGNAQGIRLVHTLMRMNLTWAQVGGILKYTRPAWWRGETPETHHYLMKKPGYYLSEEAYIARLRKELNLALYSRFPLTWIMEAADDISYCVADLEDAVEKRIFTVEQLYHHLHEAWGQHEKGSLFSLVVENAWEKSRSNSLSRSTEDQFFMYLRVNTLNKLVPYAAQRFIDNLPAIFAGTFNHALLEDASECSDLLKLYKNVAVKHVFSHPDVERLELQGYRVISGLLEIYRPLLSLSLSDFTELVEKERVKRFPIESRLFHKLSTRHRLAYVEAVSKLPSDSPEFPLWEYYYRCRLLQDYISGMTDLYAWDEYRRLMAVEQ,,6
Escherichia coli dGTPase H126A (enzyme) MAQIDFRKKINWHRRYRSPQGVKTEHEILRIFESDRGRIINSPAIRRLQQKTQVFPLERNAAVRTRLTHSMEVQQVGRYIAKEILSRLKELKLLEAYGLDELTGPFESIVEMSCLMHDIGNPPFGAFGEAAINDWFRQRLHPEDAESQPLTDDRCSVAALRLRDGEEPLNELRRKIRQDLCHFEGNAQGIRLVHTLMRMNLTWAQVGGILKYTRPAWWRGETPETHHYLMKKPGYYLSEEAYIARLRKELNLALYSRFPLTWIMEAADDISYCVADLEDAVEKRIFTVEQLYHHLHEAWGQHEKGSLFSLVVENAWEKSRSNSLSRSTEDQFFMYLRVNTLNKLVPYAAQRFIDNLPAIFAGTFNHALLEDASECSDLLKLYKNVAVKHVFSHPDVERLELQGYRVISGLLEIYRPLLSLSLSDFTELVEKERVKRFPIESRLFHKLSTRHRLAYVEAVSKLPSDSPEFPLWEYYYRCRLLQDYISGMTDLYAWDEYRRLMAVEQ,,6
Escherichia coli dGTPase Y272A (enzyme) MAQIDFRKKINWHRRYRSPQGVKTEHEILRIFESDRGRIINSPAIRRLQQKTQVFPLERNAAVRTRLTHSMEVQQVGRYIAKEILSRLKELKLLEAYGLDELTGPFESIVEMSCLMHDIGNPPFGHFGEAAINDWFRQRLHPEDAESQPLTDDRCSVAALRLRDGEEPLNELRRKIRQDLCHFEGNAQGIRLVHTLMRMNLTWAQVGGILKYTRPAWWRGETPETHHYLMKKPGYYLSEEAYIARLRKELNLALYSRFPLTWIMEAADDISACVADLEDAVEKRIFTVEQLYHHLHEAWGQHEKGSLFSLVVENAWEKSRSNSLSRSTEDQFFMYLRVNTLNKLVPYAAQRFIDNLPAIFAGTFNHALLEDASECSDLLKLYKNVAVKHVFSHPDVERLELQGYRVISGLLEIYRPLLSLSLSDFTELVEKERVKRFPIESRLFHKLSTRHRLAYVEAVSKLPSDSPEFPLWEYYYRCRLLQDYISGMTDLYAWDEYRRLMAVEQ,,6

# Reference: paper PMC6511015 (Proceedings of the National Academy of Sciences of the …, 2019)
